This is an account of results in PMC3042207 (British Journal of Pharmacology, 2011).

Several values for one entry are separate records, joined by “and”; a condition that tells them apart may be missing. Identical values can stand only once. Like-named read-outs stand apart in the source and are kept apart here. Where only a bound is given, the exact number is not on record here.

The subject of one data set is CYP2C8. Conditions: ref Ong et al., 2000; cited from earlier work.
The test system of data set [1] is human liver microsomes (HLM). Description: CYP inhibition: 4-HPR metabolite formation in HLM with CYP inhibitors. Particulars: HLM + 4-HPR; inhibitor alone at 100 µM. The class given is in vitro ADME.
Substrate in data set [2]: CC1=C(/C=C/C(C)=C/C=C/C(C)=C/C(=O)Nc2ccc(O)cc2)C(C)(C)CCC1
Description: Glucuronidation of 4-HPR by UGT 1A1 supersomes. The class given is in vitro ADME, human. Particulars: other: UGT 1A1, 1 mg·mL^−1; 4-HPR 0-2000 µM, 3 h; 37.0 °C.

Substrate in data set [3]: CC1=C(/C=C/C(C)=C/C=C/C(C)=C/C(=O)Nc2ccc(O)cc2)C(C)(C)CCC1
Briefly: Glucuronidation of 4-HPR by UGT 1A3 supersomes. The class given is in vitro ADME, human. Particulars: other: UGT 1A3, 1 mg·mL^−1; 4-HPR 0-2000 µM, 3 h; 37.0 °C.

Substrate in data set [4]: CC1=C(/C=C/C(C)=C/C=C/C(C)=C/C(=O)Nc2ccc(O)cc2)C(C)(C)CCC1
Description: Glucuronidation of 4-HPR by UGT 1A6 supersomes. The class given is in vitro ADME, human. Conditions: other: UGT 1A6, 1 mg·mL^−1; 4-HPR 0-2000 µM, 3 h; 37.0 °C.

Substrate in data set [5]: CC1=C(/C=C/C(C)=C/C=C/C(C)=C/C(=O)Nc2ccc(O)cc2)C(C)(C)CCC1
Description: Metabolism of 4-HPR by CYP2C8 supersomes. Format: in vitro ADME, human. Particulars: other: CYP2C8 supersomes; 4-HPR 0-20 µM, 3 h; 37.0 °C.

Substrate in data set [6]: CC1=C(/C=C/C(C)=C/C=C/C(C)=C/C(=O)Nc2ccc(O)cc2)C(C)(C)CCC1
Format: in vitro ADME, human. Particulars: other: CYP2C8*3, E. coli membranes; 4-HPR 0-20 µM, 3 h; pH 5.0.

Substrate in data set [7]: CC1=C(/C=C/C(C)=C/C=C/C(C)=C/C(=O)Nc2ccc(O)cc2)C(C)(C)CCC1
Briefly: Metabolism of 4-HPR by CYP3A5 supersomes. The class given is in vitro ADME, human. Particulars: other: CYP3A5 supersomes; 4-HPR 0-20 µM, 3 h; 37.0 °C.

As for `CC(=O)N1CCN(c2ccc(OCC3COC(Cn4ccnc4)(c4ccc(Cl)cc4Cl)O3)cc2)CC1` (centres unmarked) [Ketoconazole, ketoconazole], the “concentrations at which CYP2C8 is markedly inhibited” value in the data set on CYP2C8 is given as greater than 10 µM. As for `COc1ccc2[nH]c([S+]([O-])Cc3ncc(C)c(OC)c3C)nc2c1` (centres unmarked) [Omeprazole, omeprazole], the “effect on production of 4′-OH 4-HPR and 4′-oxo 4-HPR, inhibitor alone” value in data set [1] is listed as “very little effect”.

B1: UGT 1A1 (Homo sapiens) (protein)
chain: HAGKILLIPVDGSHWLSMLGAIQQLQQRGHEIVVLAPDASLYIRDGAFYTLKTYPVPFQREDVKESFVSLGHNVFENDSFLQRVIKTYKKIKKDSAMLLSGCSHLLHNKELMASLAESSFDVMLTDPFLPCSPIVAQYLSLPTVFFLHALPCSLEFEATQCPNPFSYVPRPLSSHSDHMTFLQRVKNMLIAFSQNFLCDVVYSPYATLASEFLQREVTVQDLLSSASVWLFRSDFVKDYPRPIMPNMVFVGGINCLHQNPLSQEFEAYINASGEHGIVVFSLGSMVSEIPEKKAMAIADALGKIPQTVLWRYTGTRPSNLANNTILVKWLPQNDLLGHPMTRAFITHAGSHGVYESICNGVPMVMMPLFGDQMDNAKRMETKGAGVTLNVLEMTSEDLENALKAVINDKSYKENIMRLSSLHKDRPVEPLDLAVFWVEFVMRHKGAPHLRPAAHDLTWYQYHSLDVIGFLLAVVLTVAFITFKCCAYGYRKCLGKKGRVKKAHKSKTH
On to B1, for which the Michaelis-Menten constant (Km) in data set [2] worked out at 716 ± 87 µM.

B2: UGT 1A3 (Homo sapiens) (protein)
chain: GKVLVVPIDGSHWLSMREVLRELHARGHQAVVLTPEVNMHIKEENFFTLTTYAISWTQDEFDRHVLGHTQLYFETEHFLKKFFRSMAMLNNMSLVYHRSCVELLHNEALIRHLNATSFDVVLTDPVNLCAAVLAKYLSIPTVFFLRNIPCDLDFKGTQCPNPSSYIPRLLTTNSDHMTFMQRVKNMLYPLALSYICHAFSAPYASLASELFQREVSVVDILSHASVWLFRGDFVMDYPRPIMPNMVFIGGINCANRKPLSQEFEAYINASGEHGIVVFSLGSMVSEIPEKKAMAIADALGKIPQTVLWRYTGTRPSNLANNTILVKWLPQNDLLGHPMTRAFITHAGSHGVYESICNGVPMVMMPLFGDQMDNAKRMETKGAGVTLNVLEMTSEDLENALKAVINDKSYKENIMRLSSLHKDRPVEPLDLAVFWVEFVMRHKGAPHLRPAAHDLTWYQYHSLDVIGFLLAVVLTVAFITFKCCAYGYRKCLGKKGRVKKAHKSKTH
Turning to B2, the Km in data set [3] was 389 ± 53 µM.

B3: UGT 1A6 (Homo sapiens) (protein)
chain: DKLLVVPQDGSHWLSMKDIVEVLSDRGHEIVVVVPEVNLLLKESKYYTRKIYPVPYDQEELKNRYQSFGNNHFAERSFLTAPQTEYRNNMIVIGLYFINCQSLLQDRDTLNFFKESKFDALFTDPALPCGVILAEYLGLPSVYLFRGFPCSLEHTFSRSPDPVSYIPRCYTKFSDHMTFSQRVANFLVNLLEPYLFYCLFSKYEELASAVLKRDVDIITLYQKVSVWLLRYDFVLEYPRPVMPNMVFIGGINCKKRKDLSQEFEAYINASGEHGIVVFSLGSMVSEIPEKKAMAIADALGKIPQTVLWRYTGTRPSNLANNTILVKWLPQNDLLGHPMTRAFITHAGSHGVYESICNGVPMVMMPLFGDQMDNAKRMETKGAGVTLNVLEMTSEDLENALKAVINDKSYKENIMRLSSLHKDRPVEPLDLAVFWVEFVMRHKGAPHLRPAAHDLTWYQYHSLDVIGFLLAVVLTVAFITFKCCAYGYRKCLGKKGRVKKAHKSKTH
On to B3, for which the Km in data set [4] was determined as 422 ± 46 µM.

B4: CYP2C8 (Homo sapiens) (protein)
chain: MEPFVVLVLCLSFMLLFSLWRQSCRRRKLPPGPTPLPIIGNMLQIDVKDICKSFTNFSKVYGPVFTVYFGMNPIVVFHGYEAVKEALIDNGEEFSGRGNSPISQRITKGLGIISSNGKRWKEIRRFSLTTLRNFGMGKRSIEDRVQEEAHCLVEELRKTKASPCDPTFILGCAPCNVICSVVFQKRFDYKDQNFLTLMKRFNENFRILNSPWIQVCNNFPLLIDCFPGTHNKVLKNVALTRSYIREKVKEHQASLDVNNPRDFIDCFLIKMEQEKDNQKSEFNIENLVGTVADLFVAGTETTSTTLRYGLLLLLKHPEVTAKVQEEIDHVIGRHRSPCMQDRSHMPYTDAVVHEIQRYSDLVPTGVPHAVTTDTKFRNYLIPKGTTIMALLTSVLHDDKEFPNPNIFDPGHFLDKNGNFKKSDYFMPFSAGKRICAGEGLARMELFLFLTTILQNFNLKSVDDLKNLNTTAVTKGIVSLPPSYQICFIPV
For B4, the Km in data set [5] was 5.0 ± 3.1 µM and 2.2 ± 1.1 µM.

B5: CYP2C8*3 (Homo sapiens; K399R/R139K) (protein)
chain: MEPFVVLVLCLSFMLLFSLWRQSCRRRKLPPGPTPLPIIGNMLQIDVKDICKSFTNFSKVYGPVFTVYFGMNPIVVFHGYEAVKEALIDNGEEFSGRGNSPISQRITKGLGIISSNGKRWKEIRRFSLTTLRNFGMGKKSIEDRVQEEAHCLVEELRKTKASPCDPTFILGCAPCNVICSVVFQKRFDYKDQNFLTLMKRFNENFRILNSPWIQVCNNFPLLIDCFPGTHNKVLKNVALTRSYIREKVKEHQASLDVNNPRDFIDCFLIKMEQEKDNQKSEFNIENLVGTVADLFVAGTETTSTTLRYGLLLLLKHPEVTAKVQEEIDHVIGRHRSPCMQDRSHMPYTDAVVHEIQRYSDLVPTGVPHAVTTDTKFRNYLIPKGTTIMALLTSVLHDDREFPNPNIFDPGHFLDKNGNFKKSDYFMPFSAGKRICAGEGLARMELFLFLTTILQNFNLKSVDDLKNLNTTAVTKGIVSLPPSYQICFIPV
Turning to B5, the Km in data set [6] was 18.8 ± 8.3 µM and 8.6 ± 2.5 µM.

B6: CYP3A5 (Homo sapiens) (protein)
chain: MDLIPNLAVETWLLLAVSLVLLYLYGTRTHGLFKRLGIPGPTPLPLLGNVLSYRQGLWKFDTECYKKYGKMWGTYEGQLPVLAITDPDVIRTVLVKECYSVFTNRRSLGPVGFMKSAISLAEDEEWKRIRSLLSPTFTSGKLKEMFPIIAQYGDVLVRNLRREAEKGKPVTLKDIFGAYSMDVITGTSFGVNIDSLNNPQDPFVESTKKFLKFGFLDPLFLSIILFPFLTPVFEALNVSLFPKDTINFLSKSVNRMKKSRLNDKQKHRLDFLQLMIDSQNSKETESHKALSDLELAAQSIIFIFAGYETTSSVLSFTLYELATHPDVQQKLQKEIDAVLPNKAPPTYDAVVQMEYLDMVVNETLRLFPVAIRLERTCKKDVEINGVFIPKGSMVVIPTYALHHDPKYWTEPEEFRPERFSKKKDSIDPYIYTPFGTGPRNCIGMRFALMNMKLALIRVLQNFSFKPCKETQIPLKLDTQGLLQPEKPIVLKVDSRDGTLSGE
Consider B6, for which, in data set [7], the Km was 19.1 ± 5.0 µM.
